Test results from article PMC2943613 (Nucleic Acids Research, 2010).

Target: the molecule itself
Assay: SEC

B1: Thermus thermophilus exonuclease I (TTHB178) (enzyme, Thermus thermophilus HB8, UniProt Q53VZ1 1-296, looked up)
chain: MAFGVSHPVALDLEATSTDPSEAEVLEVAAVDGEGRVFHRYLATQRPLPPDHEVFQLTGIPYEEYEAKKVAPKEALEELLAFLGGRPLLGHNLLRYDLPLLQRHLEEAGLPRWQGEALDTLRLAHLLFPTPPGGLEGYRLGDLYAFLLGRPLEGAHRALNDAQATLAVFHRLLDRGRRALAQHPGLVRAWRELGLPEGHLFPEDEGLIKDLLAREADVEAFFVEKEGRPFPAPTDLGPDLLPKPRPAQRIKEFVQVAHGVAGQGLVGRERPLHEVLERGLRLAVGEAEEGAVEKEG
In the case of B1, the “stoichiometry N” value is reported as 2.
